Source: publication PMC8708588, “Easy Expression and Purification of Fluorescent N-Terminal BCL11B CCHC Zinc Finger Domain” (Molecules, 2021)

Experiments:
[1] = molecular target: the molecule itself; test: SEC; Superdex 200 Increase 3.2/300 on ÄKTAmicro; sizes from a calibration curve with protein standards
CyPet-BCL11B_(42-94) = molecular target: T1, CyPet-BCL11B_(42-94) (UniProt Q9C0K0 42-94); test: FRET or BRET; CyPet- and mEYFP-tagged domain mixed 1:1, total protein 200 µg/mL, 20 mM HEPES, 150 mM NaCl, 1 mM DTT, pH 7.4; incubated 48 h at 4 °C; excitation 400 nm, emission spectra 420-700 nm at room temperature; settings: both partners purified
T1 construct: B-cell lymphoma/leukemia 11B (BCL11B), N-terminal atypical CCHC zinc finger domain, amino acids 42-94; codon-optimized insert; Order on the chain: His6, CyPet, flexible linker (GGGGS)3, TEV-cleaving site, XhoI site, BCL11B 42-94, KpnI site; Fusion of 36 kDa; CyPet already has lysine at position 206; also called fluorescently tagged BCL11B_(42-94); CyPet-tagged N-terminal BCL11B CCHC zinc finger …
T1 sequence (looked up): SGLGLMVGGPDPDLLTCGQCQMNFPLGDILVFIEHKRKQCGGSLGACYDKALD

B1: mEYFP-BCL11B_(42-94) (domain or fragment, UniProt Q9C0K0 42-94, looked up)
chain: T1 sequence (looked up)
notes: B-cell lymphoma/leukemia 11B (BCL11B), N-terminal atypical CCHC zinc finger domain, amino acids 42-94; codon-optimized insert; Fusion of 36 kDa; also called fluorescently tagged BCL11B_(42-94); source: E. coli NiCo21 (DE3), purified (IMAC, HisTrap excel); not shown: His6, N-terminal, kept; mEYFP (EYFP with A206K), N-terminal, kept
binding result [1]: binds
binding result (CyPet-BCL11B_(42-94)): binds

B2: untagged BCL11B_(42-94) zinc finger domain (domain or fragment)
chain: GLESGLGLMVGGPDPDLLTCGQCQMNFPLGDILVFIEHKRKQCGGSLGACYDKALD
notes: B-cell lymphoma/leukemia 11B (BCL11B), N-terminal atypical CCHC zinc finger domain, amino acids 42-94; 5.5 kDa; source: E. coli NiCo21 (DE3); TEV digest of purified CyPet- or mEYFP-BCL11B_(42-94), flow-through of IMAC; not shown: His6, N-terminal, cleaved; CyPet or mEYFP, N-terminal, cleaved
stoichiometry N [1]: 4
